Data on one molecule can be found in publication PMC5888579.

The target of the data set is FEN1 (human, UniProt P39748 2-380). Kind of data set: smFRET kinetics.
FEN1, sequence (P39748 2-380): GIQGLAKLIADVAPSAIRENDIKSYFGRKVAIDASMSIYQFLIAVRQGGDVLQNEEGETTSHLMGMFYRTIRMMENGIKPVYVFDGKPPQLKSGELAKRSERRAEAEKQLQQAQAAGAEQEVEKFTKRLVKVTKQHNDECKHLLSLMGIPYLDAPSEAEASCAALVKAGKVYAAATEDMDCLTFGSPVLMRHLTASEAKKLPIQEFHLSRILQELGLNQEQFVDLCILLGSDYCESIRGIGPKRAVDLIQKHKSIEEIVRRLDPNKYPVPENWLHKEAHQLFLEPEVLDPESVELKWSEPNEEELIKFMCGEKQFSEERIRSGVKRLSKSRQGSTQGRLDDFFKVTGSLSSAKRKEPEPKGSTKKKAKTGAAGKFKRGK

B1: NickInternal (dsDNA)
DNA 1: TGACCGTGTTTGACGGTCGTGAGGAGGAAAGTTCCTCCTACGGCAG
DNA 2: CTGCCGTAGGAGGAACTTTCCTCCTC
DNA 3: ACGACCGTCAAACAACGGTCA
modifications: 5' phosphate at nick; biotin; iCy3 internal in template
On to B1, for which the dissociation constant Kd (as a rule, the equilibrium constant for the complex coming apart) is 0.062 ± 0.009 µM.
